Test results as given in IntAct's records for PubMed 19779455.

B1: E3 SUMO-protein ligase PIAS4 (Homo sapiens), Q8N2W9 (parent)
chain: MAAELVEAKNMVMSFRVSDLQMLLGFVGRSKSGLKHELVTRALQLVQFDCSPELFKKIKELYETRYAKKNSEPAPQPHRPLDPLTMHSTYDRAGAVPRTPLAGPNIDYPVLYGKYLNGLGRLPAKTLKPEVRLVKLPFFNMLDELLKPTELVPQNNEKLQESPCIFALTPRQVELIRNSRELQPGVKAVQVVLRICYSDTSCPQEDQYPPNIAVKVNHSYCSVPGYYPSNKPGVEPKRPCRPINLTHLMYLSSATNRITVTWGNYGKSYSVALYLVRQLTSSELLQRLKTIGVKHPELCKALVKEKLRLDPDSEIATTGVRVSLICPLVKMRLSVPCRAETCAHLQCFDAVFYLQMNEKKPTWMCPVCDKPAPYDQLIIDGLLSKILSECEDADEIEYLVDGSWCPIRAEKERSCSPQGAILVLGPSDANGLLPAPSVNGSGALGSTGGGGPVGSMENGKPGADVVDLTLDSSSSSEDEEEEEEEEEDEDEEGPRPKRRCPFQKGLVPAC

Variants of: B1
Details: with parp1_human PARP1, P09874
Chain of parp1_human PARP1, P09874 (P09874 whole entry): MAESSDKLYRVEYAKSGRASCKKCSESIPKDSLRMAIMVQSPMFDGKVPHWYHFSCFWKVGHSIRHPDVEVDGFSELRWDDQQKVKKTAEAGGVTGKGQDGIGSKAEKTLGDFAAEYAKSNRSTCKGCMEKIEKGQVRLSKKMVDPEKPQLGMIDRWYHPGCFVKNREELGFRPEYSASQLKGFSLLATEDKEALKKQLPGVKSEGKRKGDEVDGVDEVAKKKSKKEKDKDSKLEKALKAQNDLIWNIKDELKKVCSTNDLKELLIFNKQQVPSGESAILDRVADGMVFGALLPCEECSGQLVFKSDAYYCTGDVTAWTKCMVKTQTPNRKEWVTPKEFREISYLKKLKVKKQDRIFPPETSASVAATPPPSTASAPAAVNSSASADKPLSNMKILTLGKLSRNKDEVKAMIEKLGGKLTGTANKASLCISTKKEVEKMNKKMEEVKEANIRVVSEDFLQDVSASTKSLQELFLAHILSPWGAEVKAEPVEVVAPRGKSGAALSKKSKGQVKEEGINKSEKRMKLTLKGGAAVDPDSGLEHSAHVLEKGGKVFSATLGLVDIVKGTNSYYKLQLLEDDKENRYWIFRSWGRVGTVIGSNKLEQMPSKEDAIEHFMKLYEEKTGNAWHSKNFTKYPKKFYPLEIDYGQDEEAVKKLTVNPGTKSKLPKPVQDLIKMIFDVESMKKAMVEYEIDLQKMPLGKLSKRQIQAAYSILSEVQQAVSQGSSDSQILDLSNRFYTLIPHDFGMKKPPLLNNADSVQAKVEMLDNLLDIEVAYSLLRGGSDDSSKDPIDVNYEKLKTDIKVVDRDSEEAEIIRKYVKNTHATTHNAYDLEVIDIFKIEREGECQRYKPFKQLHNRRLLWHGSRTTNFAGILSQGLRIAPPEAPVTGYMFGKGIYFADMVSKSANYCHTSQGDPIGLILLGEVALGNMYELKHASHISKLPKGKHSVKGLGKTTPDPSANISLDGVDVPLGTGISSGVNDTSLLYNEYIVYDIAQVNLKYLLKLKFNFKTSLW

| effect of a mutation on the interaction | Variant |
| --- | --- |
| disrupting interaction | MAAELVEAKNMVMSFRVSDLQMLLGFVGRSKSGLKHELVTRALQLVQFDCSPELFKKIKELYETRYAKKNSEPAPQPHRPLDPLTMHSTYDRAGAVPRTPLAGPNIDYPVLYGKYLNGLGRLPAKTLKPEVRLVKLPFFNMLDELLKPTELVPQNNEKLQESPCIFALTPRQVELIRNSRELQPGVKAVQVVLRICYSDTSCPQEDQYPPNIAVKVNHSYCSVPGYYPSNKPGVEPKRPCRPINLTHLMYLSSATNRITVTWGNYGKSYSVALYLVRQLTSSELLQRLKTIGVKHPELCKALVKEKLRLDPDSEIATTGVRVSLICPLVKMRLSVPCRAETFAHLQCFDAVFYLQMNEKKPTWMCPVCDKPAPYDQLIIDGLLSKILSECEDADEIEYLVDGSWCPIRAEKERSCSPQGAILVLGPSDANGLLPAPSVNGSGALGSTGGGGPVGSMENGKPGADVVDLTLDSSSSSEDEEEEEEEEEDEDEEGPRPKRRCPFQKGLVPAC [C342F] |
